IntAct's records for PubMed 18571423

B1: Histone-binding protein RBBP7 (Homo sapiens), Q16576 (parent)
chain: MASKEMFEDTVEERVINEEYKIWKKNTPFLYDLVMTHALQWPSLTVQWLPEVTKPEGKDYALHWLVLGTHTSDEQNHLVVARVHIPNDDAQFDASHCDSDKGEFGGFGSVTGKIECEIKINHEGEVNRARYMPQNPHIIATKTPSSDVLVFDYTKHPAKPDPSGECNPDLRLRGHQKEGYGLSWNSNLSGHLLSASDDHTVCLWDINAGPKEGKIVDAKAIFTGHSAVVEDVAWHLLHESLFGSVADDQKLMIWDTRSNTTSKPSHLVDAHTAEVNCLSFNPYSEFILATGSADKTVALWDLRNLKLKLHTFESHKDEIFQVHWSPHNETILASSGTDRRLNVWDLSKIGEEQSAEDAEDGPPELLFIHGGHTAKISDFSWNPNEPWVICSVSEDNIMQIWQMAENIYNDEESDVTTSELEGQGS

Variants of: B1
Conditions: with h4_human H4C16, P62805

Effect of a mutation on the interaction, disrupting interaction:
L30Y;E356Q;D357N;E359Q;D360N
L30Y
E356Q;D357N;E359Q;D360N
